From patent US20020004485A1 come the findings set out here.

Square brackets hold non-standard residues; d marks the D form. Ends that are not written are not given here. * marks the point of attachment. Benzoyl(3-OMe) = COc1cccc(C(=O)*)c1; Benzoyl(4-OMe) = COc1ccc(C(=O)*)cc1; d2Thi = N[C@H](Cc1cccs1)C(=O)O

The target in assay [1] is MC receptor endogenous to Xenopus laevis melanophores (Xenopus laevis). Put plainly: cell-based or functional assay.
Assay [2] shares this target. Put plainly: Schild plot regression analysis, frog melanophores (functional).
For assay [3] the target is unchanged. In words: Schild regression; suppression of α-MSH-induced pigment dispersion in Xenopus melanophores (functional).
For assay [4] the target is unchanged. In words: Schild plot; antagonism of α-MSH pigment dispersion in Xenopus melanophores (functional).

B1: Ac-Arg-Tyr-Tyr-Arg-Trp-Lys-NH2 (peptide)
chain: Ac-RYYRWK-NH2
As to B1, in assay [1], the IC50 nM in Frog Melanophore Assay came to 1050 nM.

B2: human agouti-related protein fragment ARP-(83-132)-NH2 (peptide)
peptide: SSRRCVRLHESCLGQQVPCCDPCATCYCRFFNAFCYCRKLGTAMNPCSRT-NH2
modifications: disulfide (positions not given here); not fully specified (bridges); also: five disulfides among the 10 Cys, arrangement undetermined
In the case of B2, the EC50 of α-MSH in frog melanophores in the presence of 30 nM ARP fragment in assay [1] stood at 19 nM. Further, the values for the Ki in assay [2] and in assay [3] were 0.21 nM and 0.7 nM, respectively.

B3: p-anisoyl-[D-Leu^12] dynorphin A(6-12)-NH2 (peptide)
peptide: {Benzoyl(4-OMe)}-RRIRPK[dL]-NH2
As for B3, the MCR IC50 nM: antagonism of α-MSH (600 pM) darkening of frog melanophores in assay [1] is 29 nM. Moreover, in assay [4], the Ki (as a rule, a dissociation constant, usually derived from enzyme kinetics or from competition with a known ligand) was 27 nM and the pKi (as a rule, −log10 of the Ki, conventionally taken in molar units) was found to be 7.57.

B4: p-Anisoyl-Arg-Tyr-Tyr-Arg-D-Trp-Lys-NH2 (peptide)
peptide: {Benzoyl(4-OMe)}-RYYR[dW]K-NH2
SMILES: COc1ccc(C(=O)N[C@@H](CCCNC(=N)N)C(=O)N[C@@H](Cc2ccc(O)cc2)C(=O)N[C@@H](Cc2ccc(O)cc2)C(=O)N[C@@H](CCCNC(=N)N)C(=O)N[C@H](Cc2c[nH]c3ccccc23)C(=O)N[C@@H](CCCCN)C(N)=O)cc1
B4 returned an IC50 nM in Frog Melanophore Assay in assay [1] of 175 nM.

B5: SQW-12 (peptide)
peptide: {Benzoyl(3-OMe)}-RRIRPAL-NH2
SMILES: CC[C@H](C)[C@H](NC(=O)[C@H](CCCNC(=N)N)NC(=O)[C@H](CCCNC(=N)N)NC(=O)c1cccc(OC)c1)C(=O)N[C@@H](CCCNC(=N)N)C(=O)N1CCC[C@H]1C(=O)N[C@@H](C)C(=O)N[C@@H](CC(C)C)C(N)=O
In the case of B5, the MCR IC50 nM: antagonism of α-MSH (600 pM) darkening of frog melanophores in assay [1] turned out to be 1600 nM.

B6: SQW-10 (peptide)
peptide: {Benzoyl(3-OMe)}-RRIAPKL-NH2
SMILES: CC[C@H](C)[C@H](NC(=O)[C@H](CCCNC(=N)N)NC(=O)[C@H](CCCNC(=N)N)NC(=O)c1cccc(OC)c1)C(=O)N[C@@H](C)C(=O)N1CCC[C@H]1C(=O)N[C@@H](CCCCN)C(=O)N[C@@H](CC(C)C)C(N)=O
In assay [1], B6 gave an MCR IC50 nM: antagonism of α-MSH (600 pM) darkening of frog melanophores of 187 nM.

B7: SQW-9 (peptide)
peptide: {Benzoyl(3-OMe)}-RRARPKL-NH2
SMILES: COc1cccc(C(=O)N[C@@H](CCCNC(=N)N)C(=O)N[C@@H](CCCNC(=N)N)C(=O)N[C@@H](C)C(=O)N[C@@H](CCCNC(=N)N)C(=O)N2CCC[C@H]2C(=O)N[C@@H](CCCCN)C(=O)N[C@@H](CC(C)C)C(N)=O)c1
In turn, B7 showed an MCR IC50 nM: antagonism of α-MSH (600 pM) darkening of frog melanophores in assay [1] of 155 nM.

B8: SQW-13 (peptide)
peptide: {Benzoyl(3-OMe)}-RRIRPKA-NH2
SMILES: CC[C@H](C)[C@H](NC(=O)[C@H](CCCNC(=N)N)NC(=O)[C@H](CCCNC(=N)N)NC(=O)c1cccc(OC)c1)C(=O)N[C@@H](CCCNC(=N)N)C(=O)N1CCC[C@H]1C(=O)N[C@@H](CCCCN)C(=O)N[C@@H](C)C(N)=O
B8: the MCR IC50 nM: antagonism of α-MSH (600 pM) darkening of frog melanophores in assay [1] worked out at 62 nM.

B9: Ac-Arg-Tyr-Tyr-Arg-D-Trp-Lys-NH2 (peptide)
peptide: Ac-RYYR[dW]K-NH2
SMILES: CC(=O)N[C@@H](CCCNC(=N)N)C(=O)N[C@@H](Cc1ccc(O)cc1)C(=O)N[C@@H](Cc1ccc(O)cc1)C(=O)N[C@@H](CCCNC(=N)N)C(=O)N[C@H](Cc1c[nH]c2ccccc12)C(=O)N[C@@H](CCCCN)C(N)=O
With B9, the IC50 nM in Frog Melanophore Assay in assay [1] stood at 867 nM.

B10: SQW-11 (peptide)
peptide: {Benzoyl(3-OMe)}-RRIRAKL-NH2
SMILES: CC[C@H](C)[C@H](NC(=O)[C@H](CCCNC(=N)N)NC(=O)[C@H](CCCNC(=N)N)NC(=O)c1cccc(OC)c1)C(=O)N[C@@H](CCCNC(=N)N)C(=O)N[C@@H](C)C(=O)N[C@@H](CCCCN)C(=O)N[C@@H](CC(C)C)C(N)=O
As for B10, the MCR IC50 nM: antagonism of α-MSH (600 pM) darkening of frog melanophores in assay [1] stood at 188 nM.

B11: S-118 (peptide)
peptide: {Benzoyl(4-OMe)}-AKLL[d2Thi]I[dL]-NH2
SMILES: CC[C@H](C)[C@H](NC(=O)[C@@H](Cc1cccs1)NC(=O)[C@H](CC(C)C)NC(=O)[C@H](CC(C)C)NC(=O)[C@H](CCCCN)NC(=O)[C@H](C)NC(=O)c1ccc(OC)cc1)C(=O)N[C@H](CC(C)C)C(N)=O
B11 returned an MCR Antagonism IC50 nM In Xenopus in assay [1] of 96 nM.

B12: SQW-8 (peptide)
peptide: {Benzoyl(3-OMe)}-RAIRPKL-NH2
SMILES: CC[C@H](C)[C@H](NC(=O)[C@H](C)NC(=O)[C@H](CCCNC(=N)N)NC(=O)c1cccc(OC)c1)C(=O)N[C@@H](CCCNC(=N)N)C(=O)N1CCC[C@H]1C(=O)N[C@@H](CCCCN)C(=O)N[C@@H](CC(C)C)C(N)=O
In assay [1], B12 displayed an MCR IC50 nM: antagonism of α-MSH (600 pM) darkening of frog melanophores of 75 nM.
